According to patent US20230019342A1:
Square brackets hold non-standard residues; d marks the D form. Primed or numbered codes have the meaning given here. Ends that are not written are not given here. * marks the point of attachment. D‑Lys(pentyne) = D-Lys(pentyne) amide, alkyne-bearing D-lysine, C#CCCC(=O)NCCCC[C@@H](N*)C(N)=O; S3(3) = biotin-PEG2-acylated azidolysine clicked to D-Pra carrying 5-azido-pentanoic acid; Lys(N3) = [N-]=[N+]=NCCCC[C@H](N)C(=O)O; S3″ = biotin-PEG2 linker with azide; dPra = C#CC[C@@H](N)C(=O)O

Legend:
[1] = target: Active Akt2 (with N terminal His6 tag) (human) (UniProt P31751); assay: cell-based or functional assay
[2] = target: Inactive Akt2 (with N terminal His6 tag) (human) (UniProt P31751); assay: ELISA, immobilised C-tL, active against inactive Akt2 (FIG. 23E)
[3] = target: Active Akt2 (with N terminal His6 tag) (human) (UniProt P31751); assay: single component ELISA, C-tL as surface-localized capture agent (FIG. 23A)
[4] = target: Active Akt1 (with N terminal His6 tag) (human) (UniProt P31749); assay: ELISA, C-tL immobilised on streptavidin plate, 25 nM His6 tagged full protein, anti His6 detection, triplicate
Sequence of Active Akt1 (with N terminal His6 tag) (human) (P31749 other isoform, or with tags, fused parts or gaps): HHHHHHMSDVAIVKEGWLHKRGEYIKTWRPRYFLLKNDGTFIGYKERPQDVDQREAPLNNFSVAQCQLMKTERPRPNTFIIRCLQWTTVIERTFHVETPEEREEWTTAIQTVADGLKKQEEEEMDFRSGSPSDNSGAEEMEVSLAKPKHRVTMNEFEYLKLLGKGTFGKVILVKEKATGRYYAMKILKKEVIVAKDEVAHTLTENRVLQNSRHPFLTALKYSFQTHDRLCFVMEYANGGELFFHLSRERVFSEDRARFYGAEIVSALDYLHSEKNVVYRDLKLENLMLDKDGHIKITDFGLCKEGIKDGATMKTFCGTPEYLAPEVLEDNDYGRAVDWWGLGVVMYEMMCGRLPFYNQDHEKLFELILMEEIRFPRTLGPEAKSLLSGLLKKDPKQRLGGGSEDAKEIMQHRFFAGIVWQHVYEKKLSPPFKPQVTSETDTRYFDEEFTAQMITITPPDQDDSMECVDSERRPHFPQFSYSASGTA

[5] = target: Active Akt3 (with N terminal His6 tag) (human) (UniProt Q9Y243); assay: as above
Sequence of Active Akt3 (with N terminal His6 tag) (human) (Q9Y243 other isoform, or with tags, fused parts or gaps): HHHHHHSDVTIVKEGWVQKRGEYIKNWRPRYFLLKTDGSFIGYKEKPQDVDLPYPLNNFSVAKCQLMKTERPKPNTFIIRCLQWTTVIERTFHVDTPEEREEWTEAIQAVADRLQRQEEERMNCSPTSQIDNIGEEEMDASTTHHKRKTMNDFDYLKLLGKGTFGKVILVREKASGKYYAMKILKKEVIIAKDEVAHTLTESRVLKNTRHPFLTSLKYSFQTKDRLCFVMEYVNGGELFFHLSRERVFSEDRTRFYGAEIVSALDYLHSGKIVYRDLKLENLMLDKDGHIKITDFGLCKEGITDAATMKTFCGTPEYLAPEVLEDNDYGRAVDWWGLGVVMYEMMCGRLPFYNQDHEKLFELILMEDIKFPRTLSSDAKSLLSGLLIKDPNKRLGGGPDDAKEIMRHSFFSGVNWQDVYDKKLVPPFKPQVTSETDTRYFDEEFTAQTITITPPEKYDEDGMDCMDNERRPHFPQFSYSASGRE

[6] = target: T1, N-tL (not fully specified)
T1 chain 1: WKVKL
T1 chain 2: HNGYF
T1 chain 3: XYYRFG

[7] = target: Active Akt2 (with N terminal His6 tag) (human) (UniProt P31751); assay: single-component immunoassay (ELISA, mono-L as detection agent, FIG. 23A)
[8] = target: Active Akt2 (with N terminal His6 tag) (human) (UniProt P31751); assay: single-component ELISA (bi-L as detection agent, FIG. 23A)
[9] = target: Active Akt2 (with N terminal His6 tag) (human) (UniProt P31751); assay: single component ELISA, N-tL as surface-localized capture agent (FIG. 23A)
[10] = target: Active Akt2 (with N terminal His6 tag) (human) (UniProt P31751); assay: SPR, Biacore T100, N-tL immobilised on SA chip, Akt2 protein as analyte, 1:1 model, 10° C.
[11] = target: Active Akt2 (with N terminal His6 tag) (human) (UniProt P31751); assay: not stated there (summary of the ELISA and SPR results)

B1: C-tL (peptide)
peptide 1: Ac-[Lys(N3)][dH][dD]GG[dF]-NH2
peptide 2: {S3″}-[dW][dK][dV][dK]-{D‑Lys(pentyne)-NH2}
peptide 3: [dH][dN]G[dY][dF][dPra]
modifications: not fully specified (bridges); also: branched three-arm conjugate, triazole at chain A 1 to a chain's C-terminus, triazole to a chain's N/C-terminus via S3
How did the Akt2 kinase activity: phosphorylation of the GSK-3α/β substrate, Western blot, EC50 [1] turn out when B1 was run?
The Akt2 kinase activity: phosphorylation of the GSK-3α/β substrate, Western blot, EC50 was 4000 nM.

What about the selectivity ratio (p-Akt2 over Akt2) (fold (ratio, reference p-Akt2)) [2] of the same binder?
Its selectivity ratio (p-Akt2 over Akt2) (fold (ratio, reference p-Akt2)) is 5.

What about the EC50 [3] of the same binder?
Its EC50 is 125 nM.

And the selectivity ratio (Akt2 over Akt1) (fold (ratio, reference full-length Akt2)) [4]?
The selectivity ratio (Akt2 over Akt1) (fold (ratio, reference full-length Akt2)) was 5.

And the selectivity ratio (Akt2 over Akt3) (fold (ratio, reference full-length Akt2)) [5]?
Its selectivity ratio (Akt2 over Akt3) (fold (ratio, reference full-length Akt2)) is 10.

B2: Active Akt2 (with N terminal His6 tag) (protein)
chain: HHHHHHMNEVSVIKEGWLHKRGEYIKTWRPRYFLLKSDGSFIGYKERPEAPDQTLPPLNNFSVAECQLMKTERPRPNTFVIRCLQWTTVIERTFHVDSPDEREEWMRAIQMVANSLKQRAPGEDPMDYKCGSPSDSSTTEEMEVAVSKARAKVTMNDFDYLKLLGKGTFGKVILVREKATGRYYAMKILRKEVIIAKDEVAHTVTESRVLQNTRHPFLTALKYAFQTHDRLCFVMEYANGGELFFHLSRERVFTEERARFYGAEIVSALEYLHSRDVVYRDIKLENLMLDKDGHIKITDFGLCKEGISDGATMKTFCGTPEYLAPEVLEDNDYGRAVDWWGLGVVMYEMMCGRLPFYNQDHERLFELILMEEIRFPRTLSPEAKSLLAGLLKKDPKQRLGGGPSDAKEVMEHRFFLSINWQDVVQKKLLPPFKPQVTSEVDTRYFDDEFTAQSITITPPDRYDSLGLLELDQRTHFPQFSYSASIRE
B2 was tested. Which “Akt2 kinase activity: phosphorylation of the GSK-3α/β substrate, Western blot” value [6] did it give?
The value was “The N-tL was found to activate Akt2”.

B3: mono-L (peptide)
peptide: [dPra][dW][dK][dV][dK][dL]-NH2
modifications: not fully specified (residue 1, N-terminus); printed as (D-Pra)-wkvkl; also: D-Pra side chain clicked (triazole) to azide of S1 (azidolysine-PEG2-biotin), biotin label
B3 was tested. Which affinity [7] did it give?
The affinity was 3 µM.

B4: bi-L (peptide)
peptide 1: {S3(3)}-[dW][dK][dV][dK][dL]-NH2
peptide 2: [dH][dN]G[dY][dF][dPra]
modifications: triazole (positions not given here); also: branched two-arm conjugate, triazole to a chain's N/C-terminus via S3
For B4, which affinity [8] is on record?
The affinity was 1 µM.

B5: N-tL (peptide)
peptide 1: [dW][dK][dV][dK][dL]
peptide 2: [dH][dN]G[dY][dF]
peptide 3: Ac-[dPra][dY][dY][dR][dF]G-NH2
modifications: not fully specified (bridges)
How did the EC50 [9] turn out when B5 was run?
The EC50 was 19 nM.

And the Kd [10]?
The Kd was 25 nM.

And the affinity [11]?
The affinity was 20 nM.
